We go through one substance from US20010055591A1.

One assay has as its target Factor Xa (human) (UniProt P00742). The experiment in a line: discontinuous Factor Xa inhibition assay, chromogenic substrate SpFXa.
Assay [1] has as its target thrombin (free thrombin) (human) (UniProt P00734). The assay can be described thus: discontinuous thrombin inhibition assay, chromogenic substrate; no TM.
Assay [2] shares this target. The experiment in a line: discontinuous thrombin inhibition assay, chromogenic substrate; with 5 µg/ml heparin.
The next assay concerns the target trypsin. The assay can be described thus: discontinuous trypsin inhibition assay, chromogenic substrate SpTH.

Factor Xa (human), sequence (P00742 41-179 limits assumed, form in doubt, chain 1 of 2): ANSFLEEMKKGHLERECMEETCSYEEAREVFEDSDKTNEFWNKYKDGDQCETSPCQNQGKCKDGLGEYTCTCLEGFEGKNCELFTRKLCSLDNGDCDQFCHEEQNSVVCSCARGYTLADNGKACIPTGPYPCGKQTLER
Factor Xa (human), sequence (P00742 235-488 limits assumed, form in doubt, chain 2 of 2): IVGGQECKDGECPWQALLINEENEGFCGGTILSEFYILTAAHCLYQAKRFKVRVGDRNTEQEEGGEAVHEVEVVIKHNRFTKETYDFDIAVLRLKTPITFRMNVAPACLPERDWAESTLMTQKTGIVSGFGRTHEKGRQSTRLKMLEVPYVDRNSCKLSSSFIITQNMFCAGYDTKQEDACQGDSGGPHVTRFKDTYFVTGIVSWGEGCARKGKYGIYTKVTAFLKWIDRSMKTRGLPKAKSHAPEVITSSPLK

For the substance “AT-neut (antithrombin H-helix mutant Asp309 to Asn, Glu310, 312, 313 to Gln) (from UniProt P01008 33-464)”, the second-order rate constant (κ2) of inhibition with Factor Xa (human) came to 990 M⁻¹ s⁻¹; in assay [1], 4100 M⁻¹ s⁻¹; in assay [2], 1.4e+06 M⁻¹ s⁻¹; in the assay with trypsin, 17000 M⁻¹ s⁻¹.
